From patent publication US11833164B2, “Methods of treating Fabry disease in patients having a mutation in the GLA gene” (Amicus Therapeutics, Inc., priority 2019, dated 2023)

System: mutant form of α-Gal A expressed in HEK-293 cells
Test: HEK assay (GLP HEK / Migalastat Amenability Assay): α-Gal A activity in lysates of transiently transfected HEK-293 cells incubated with or without 10 μM migalastat
Type: cell-based, human
Details: for Absolute increase (% WT): 10 μM migalastat versus baseline; for Relative increase: 10 μM migalastat α-Gal A activity relative to baseline; for 10 μM migalastat α-Gal A activity (% WT): 5 days; for 10 μM migalastat α-Gal A activity (% WT) / Baseline α-Gal A activity (% WT): percentage of baseline wild-type α-Gal A activity; for 10 μM migalastat α-Gal A activity (% WT) / Baseline α-Gal A activity (% WT) / Baseline α-Gal A activity / 10 μM migalastat α-Gal A activity: mean ± SEM; for Baseline α-Gal A activity (% WT): absence of migalastat; for Baseline α-Gal A activity / 10 μM migalastat α-Gal A activity: lysates of HEK-293 cells transfected with the mutant form; for Baseline α-Gal A activity: incubated 5 days in the absence of migalastat; for 10 μM migalastat α-Gal A activity: incubated 5 days with 10 μM migalastat
Method: Such mutations or variants are also referred to herein as “HEK assay amenable” mutations or variants.
The α-Gal A activity is expressed as the nmoles of free 4-MU released per milligram of protein per hour (nmol/mg/hr).
In Table 7, values for the mean±standard error of the mean (SEM) were calculated. nmol/mg/hr indicates “nmoles of free 4-MU released per mg of protein per hour”. WT indicates “wild-type”. NC indicates “not calculable”. N/A indicates “not applicable”.

B1: Q99R (protein)
chain: MQLRNPELHLGCALALRFLALVSWDIPGARALDNGLARTPTMGWLHWERFMCNLDCQEEPDSCISEKLFMEMAELMVSEGWKDAGYEYLCIDDCWMAPRRDSEGRLQADPQRFPHGIRQLANYVHSKGLKLGIYADVGNKTCAGFPGSFGYYDIDAQTFADWGVDLLKFDGCYCDSLENLADGYKHMSLALNRTGRSIVYSCEWPLYMWPFQKPNYTEIRQYCNHWRNFADIDDSWKSIKSILDWTSFNQERIVDVAGPGGWNDPDMLVIGNFGLSWNQQVTQMALWAIMAAPLFMSNDLRHISPQAKALLQDKDVIAINQDPLGKQGYQLRQGDNFEVWERPLSGLAWAVAMINRQEIGGPRSYTIAVASLGKGVACNPACFITQLLPVKRKLGFYEWTSRLRSHINPTGTVLLQLENTMQMSLKDLL
Absolute increase (% WT): 21.4 % WT | Relative increase: 1.2 | 10 μM migalastat α-Gal A activity (% WT): 114.8 ± 8 % WT | Baseline α-Gal A activity (% WT): 93.4 ± 6.3 % WT | Baseline α-Gal A activity: 32963 ± 1757 nmol/mg/h | 10 μM migalastat α-Gal A activity: 41024 ± 3001 nmol/mg/h

B2: D101G (protein)
chain: MQLRNPELHLGCALALRFLALVSWDIPGARALDNGLARTPTMGWLHWERFMCNLDCQEEPDSCISEKLFMEMAELMVSEGWKDAGYEYLCIDDCWMAPQRGSEGRLQADPQRFPHGIRQLANYVHSKGLKLGIYADVGNKTCAGFPGSFGYYDIDAQTFADWGVDLLKFDGCYCDSLENLADGYKHMSLALNRTGRSIVYSCEWPLYMWPFQKPNYTEIRQYCNHWRNFADIDDSWKSIKSILDWTSFNQERIVDVAGPGGWNDPDMLVIGNFGLSWNQQVTQMALWAIMAAPLFMSNDLRHISPQAKALLQDKDVIAINQDPLGKQGYQLRQGDNFEVWERPLSGLAWAVAMINRQEIGGPRSYTIAVASLGKGVACNPACFITQLLPVKRKLGFYEWTSRLRSHINPTGTVLLQLENTMQMSLKDLL
Absolute increase (% WT): 12.7 % WT | Relative increase: 1.3 | 10 μM migalastat α-Gal A activity (% WT): 54.5 ± 3.8 % WT | Baseline α-Gal A activity (% WT): 41.8 ± 3.1 % WT | Baseline α-Gal A activity: 18091 ± 1103 nmol/mg/h | 10 μM migalastat α-Gal A activity: 23672 ± 1428 nmol/mg/h

B3: D101E (protein)
chain: MQLRNPELHLGCALALRFLALVSWDIPGARALDNGLARTPTMGWLHWERFMCNLDCQEEPDSCISEKLFMEMAELMVSEGWKDAGYEYLCIDDCWMAPQRESEGRLQADPQRFPHGIRQLANYVHSKGLKLGIYADVGNKTCAGFPGSFGYYDIDAQTFADWGVDLLKFDGCYCDSLENLADGYKHMSLALNRTGRSIVYSCEWPLYMWPFQKPNYTEIRQYCNHWRNFADIDDSWKSIKSILDWTSFNQERIVDVAGPGGWNDPDMLVIGNFGLSWNQQVTQMALWAIMAAPLFMSNDLRHISPQAKALLQDKDVIAINQDPLGKQGYQLRQGDNFEVWERPLSGLAWAVAMINRQEIGGPRSYTIAVASLGKGVACNPACFITQLLPVKRKLGFYEWTSRLRSHINPTGTVLLQLENTMQMSLKDLL
Absolute increase (% WT): 10.1 % WT | Relative increase: 1.4 | 10 μM migalastat α-Gal A activity (% WT): 34 ± 2.8 % WT | Baseline α-Gal A activity (% WT): 23.9 ± 1.6 % WT | Baseline α-Gal A activity: 10465 ± 624 nmol/mg/h | 10 μM migalastat α-Gal A activity: 14682 ± 993 nmol/mg/h

B4: D101V (protein)
chain: MQLRNPELHLGCALALRFLALVSWDIPGARALDNGLARTPTMGWLHWERFMCNLDCQEEPDSCISEKLFMEMAELMVSEGWKDAGYEYLCIDDCWMAPQRVSEGRLQADPQRFPHGIRQLANYVHSKGLKLGIYADVGNKTCAGFPGSFGYYDIDAQTFADWGVDLLKFDGCYCDSLENLADGYKHMSLALNRTGRSIVYSCEWPLYMWPFQKPNYTEIRQYCNHWRNFADIDDSWKSIKSILDWTSFNQERIVDVAGPGGWNDPDMLVIGNFGLSWNQQVTQMALWAIMAAPLFMSNDLRHISPQAKALLQDKDVIAINQDPLGKQGYQLRQGDNFEVWERPLSGLAWAVAMINRQEIGGPRSYTIAVASLGKGVACNPACFITQLLPVKRKLGFYEWTSRLRSHINPTGTVLLQLENTMQMSLKDLL
Absolute increase (% WT): 10.2 % WT | Relative increase: 2.2 | 10 μM migalastat α-Gal A activity (% WT): 18 ± 2.6 % WT | Baseline α-Gal A activity (% WT): 7.8 ± 0.5 % WT | Baseline α-Gal A activity: 3368 ± 179 nmol/mg/h | 10 μM migalastat α-Gal A activity: 7489 ± 936 nmol/mg/h

B5: D101A (protein)
chain: MQLRNPELHLGCALALRFLALVSWDIPGARALDNGLARTPTMGWLHWERFMCNLDCQEEPDSCISEKLFMEMAELMVSEGWKDAGYEYLCIDDCWMAPQRASEGRLQADPQRFPHGIRQLANYVHSKGLKLGIYADVGNKTCAGFPGSFGYYDIDAQTFADWGVDLLKFDGCYCDSLENLADGYKHMSLALNRTGRSIVYSCEWPLYMWPFQKPNYTEIRQYCNHWRNFADIDDSWKSIKSILDWTSFNQERIVDVAGPGGWNDPDMLVIGNFGLSWNQQVTQMALWAIMAAPLFMSNDLRHISPQAKALLQDKDVIAINQDPLGKQGYQLRQGDNFEVWERPLSGLAWAVAMINRQEIGGPRSYTIAVASLGKGVACNPACFITQLLPVKRKLGFYEWTSRLRSHINPTGTVLLQLENTMQMSLKDLL
Absolute increase (% WT): 10.2 % WT | Relative increase: 1.5 | 10 μM migalastat α-Gal A activity (% WT): 34.1 ± 3.3 % WT | Baseline α-Gal A activity (% WT): 23.9 ± 3 % WT | Baseline α-Gal A activity: 10144 ± 1069 nmol/mg/h | 10 μM migalastat α-Gal A activity: 14707 ± 1289 nmol/mg/h

B6: D101H (protein)
chain: MQLRNPELHLGCALALRFLALVSWDIPGARALDNGLARTPTMGWLHWERFMCNLDCQEEPDSCISEKLFMEMAELMVSEGWKDAGYEYLCIDDCWMAPQRHSEGRLQADPQRFPHGIRQLANYVHSKGLKLGIYADVGNKTCAGFPGSFGYYDIDAQTFADWGVDLLKFDGCYCDSLENLADGYKHMSLALNRTGRSIVYSCEWPLYMWPFQKPNYTEIRQYCNHWRNFADIDDSWKSIKSILDWTSFNQERIVDVAGPGGWNDPDMLVIGNFGLSWNQQVTQMALWAIMAAPLFMSNDLRHISPQAKALLQDKDVIAINQDPLGKQGYQLRQGDNFEVWERPLSGLAWAVAMINRQEIGGPRSYTIAVASLGKGVACNPACFITQLLPVKRKLGFYEWTSRLRSHINPTGTVLLQLENTMQMSLKDLL
Absolute increase (% WT): 7.3 % WT | Relative increase: 1.4 | 10 μM migalastat α-Gal A activity (% WT): 23.8 ± 1.3 % WT | Baseline α-Gal A activity (% WT): 16.5 ± 1.2 % WT | Baseline α-Gal A activity: 7311 ± 556 nmol/mg/h | 10 μM migalastat α-Gal A activity: 10493 ± 561 nmol/mg/h

B7: S102A (protein)
chain: MQLRNPELHLGCALALRFLALVSWDIPGARALDNGLARTPTMGWLHWERFMCNLDCQEEPDSCISEKLFMEMAELMVSEGWKDAGYEYLCIDDCWMAPQRDAEGRLQADPQRFPHGIRQLANYVHSKGLKLGIYADVGNKTCAGFPGSFGYYDIDAQTFADWGVDLLKFDGCYCDSLENLADGYKHMSLALNRTGRSIVYSCEWPLYMWPFQKPNYTEIRQYCNHWRNFADIDDSWKSIKSILDWTSFNQERIVDVAGPGGWNDPDMLVIGNFGLSWNQQVTQMALWAIMAAPLFMSNDLRHISPQAKALLQDKDVIAINQDPLGKQGYQLRQGDNFEVWERPLSGLAWAVAMINRQEIGGPRSYTIAVASLGKGVACNPACFITQLLPVKRKLGFYEWTSRLRSHINPTGTVLLQLENTMQMSLKDLL
Absolute increase (% WT): 27.3 % WT | Relative increase: 1.6 | 10 μM migalastat α-Gal A activity (% WT): 69.9 ± 5.1 % WT | Baseline α-Gal A activity (% WT): 42.6 ± 3.5 % WT | Baseline α-Gal A activity: 17330 ± 2084 nmol/mg/h | 10 μM migalastat α-Gal A activity: 26790 ± 1958 nmol/mg/h

B8: S102P (protein)
chain: MQLRNPELHLGCALALRFLALVSWDIPGARALDNGLARTPTMGWLHWERFMCNLDCQEEPDSCISEKLFMEMAELMVSEGWKDAGYEYLCIDDCWMAPQRDPEGRLQADPQRFPHGIRQLANYVHSKGLKLGIYADVGNKTCAGFPGSFGYYDIDAQTFADWGVDLLKFDGCYCDSLENLADGYKHMSLALNRTGRSIVYSCEWPLYMWPFQKPNYTEIRQYCNHWRNFADIDDSWKSIKSILDWTSFNQERIVDVAGPGGWNDPDMLVIGNFGLSWNQQVTQMALWAIMAAPLFMSNDLRHISPQAKALLQDKDVIAINQDPLGKQGYQLRQGDNFEVWERPLSGLAWAVAMINRQEIGGPRSYTIAVASLGKGVACNPACFITQLLPVKRKLGFYEWTSRLRSHINPTGTVLLQLENTMQMSLKDLL
Absolute increase (% WT): 22.3 % WT | Relative increase: 1.3 | 10 μM migalastat α-Gal A activity (% WT): 91.7 ± 5 % WT | Baseline α-Gal A activity (% WT): 69.4 ± 3.4 % WT | Baseline α-Gal A activity: 27252 ± 1778 nmol/mg/h | 10 μM migalastat α-Gal A activity: 35885 ± 2754 nmol/mg/h

B9: S102T (protein)
chain: MQLRNPELHLGCALALRFLALVSWDIPGARALDNGLARTPTMGWLHWERFMCNLDCQEEPDSCISEKLFMEMAELMVSEGWKDAGYEYLCIDDCWMAPQRDTEGRLQADPQRFPHGIRQLANYVHSKGLKLGIYADVGNKTCAGFPGSFGYYDIDAQTFADWGVDLLKFDGCYCDSLENLADGYKHMSLALNRTGRSIVYSCEWPLYMWPFQKPNYTEIRQYCNHWRNFADIDDSWKSIKSILDWTSFNQERIVDVAGPGGWNDPDMLVIGNFGLSWNQQVTQMALWAIMAAPLFMSNDLRHISPQAKALLQDKDVIAINQDPLGKQGYQLRQGDNFEVWERPLSGLAWAVAMINRQEIGGPRSYTIAVASLGKGVACNPACFITQLLPVKRKLGFYEWTSRLRSHINPTGTVLLQLENTMQMSLKDLL
Absolute increase (% WT): 20.5 % WT | Relative increase: 1.3 | 10 μM migalastat α-Gal A activity (% WT): 76.9 ± 6.2 % WT | Baseline α-Gal A activity (% WT): 56.4 ± 5.2 % WT | Baseline α-Gal A activity: 22123 ± 2319 nmol/mg/h | 10 μM migalastat α-Gal A activity: 29662 ± 2559 nmol/mg/h
